# In publication PMC7515910, “Functional genetic encoding of sulfotyrosine in mammalian cells” (Nature Communications, 2020):
# B1: evolved sTyrRS amino acid activation domain (a.a. 1-322) (enzyme, E. coli, UniProt P0AGJ9 1-322, looked up)
# chain: MASSNLIKQLQERGLVAQVTDEEALAERLAQGPIALYCGFDPTADSLHLGHLVPLLCLKRFQQAGHKPVAVVGGATGLIGDPSFKAAERKLNTEETVQEWVDKIRKQVAPFLDFDCGENSAIAANNYDFFGNMNVLTFLRDIGKHFSVNQMINKEAVKQRLNREDQGISFTEFSYNLLQGYGFACLNKQYGVVLQIGGSDQWGNITSGIDLTRRLHQNQVFGLTVPLITKADGTKFGKTEGGAVWLDPKKTSPYKFYQFWINTADADVYRFLKFFTFMSIEEINALEEEDKNSGKAPRAQYVLAEQVTRLVHGEEGLQAAKR
# notes: Y37 unchanged; Crystallised in complex with the small molecule sulfotyrosine (2 mM); also called sTyrRS (1-322); sTyrRS1-322; source: E. coli BL21(DE3), purified (Ni resin, Ulp1 cleavage, Superdex 200 gel filtration); not shown: 6xHis, N-terminal, cleaved; SUMO, N-terminal, cleaved
# Target: the molecule itself
# Assay: crystal structure; sTyrRS (a.a. 1-322, 9 mg/mL) with 2 mM sulfotyrosine; sitting drop vapor diffusion at 15 °C; ammonium sulfate (2.2 M), PEG 400 (2.5-3%), HEPES (0.1 M, pH 7.5); 1.78 Å
protein,measurement,value
B1,stoichiometry N,2
